B1: #6-55: chicken-mouse chimeric anti-FSTL1 antibody clone; variable regions SEQ ID NO: 783 (light), 785 (heavy) (antibody, V domains shown)
VH: AVTLDESGGGLQTPGGALSLVCKGSGFTFTSVTMQWVRQAPGKGLEWVASVCSGSSTYYAPAVKGRATISRDNGQSTVRLQLSNLRPEDTGTYYCAKIAGRARWSCTSAAYNIDAWGHGTEVIVSS
VL: ASTQPSSVSAIPGETVKITCSGGGNNYGWYQQRSPGSAPVTVIYYNDNRPSNIPSRFSGSTSGSTSTLTITGVQADDEAIYYCGSWDSNTDSGIFGAGTTLTVL
modifications: mouse constant regions
B2: #5-3: chicken-mouse chimeric anti-FSTL1 antibody clone; variable regions SEQ ID NO: 767 (light), 769 (heavy) (antibody, V domains shown)
VH: AVTLDESGGGLQTPGGALSLVCKGSGFSFSSFNMFWVRQAPGKGLEWVAGIGKDGVPKYGAAVDGRATISKDNGQSTMRLQLNNLRAEDTGTYFCAKAAGGCSYDWCGIYAGDIDTWGHGTEVIVSS
VL: ASTQPSSVSANPGETVKITCSGGSGYYYGWYQQKSPGSVPVTVIYNNNNRPSDIPSRFSGSKSGSTGTLTITGVRAEDEAVYYCGGYDNSGTGIFGAGTTLTVL
modifications: mouse constant regions
B3: #8-7: chicken-mouse chimeric anti-FSTL1 antibody clone; variable regions SEQ ID NO: 799 (light), 801 (heavy) (antibody, V domains shown)
VH: AVTLDESGGGLQTPGGGLSLVCKGSGFTFSSFNMFWVRQAPGKGLEWVAGIGKDGVPKYGAAVDGRATISKDNGQSTLRLQLNNLRAEDTGTYFCAKAAGGCSYDWCGIYAGDIDTWGHGTEVIVSS
VL: ASTQPSSVSANPGEAVKITCSGGSGSYYGWYQQKSPGSAPVTVIYNNNQRPSDIPSRFSGSKSGSTATLTITGVQAEDEAVYFCGGYDSSTGHGGIFGAGTTLTVL
modifications: mouse constant regions
B4: #5-8: chicken-mouse chimeric anti-FSTL1 antibody clone; variable regions SEQ ID NO: 771 (light), 773 (heavy) (antibody, V domains shown)
VH: AVTLDESGGGLQTPGGGLSLVCKGSGFTFSSFNMFWVRQAPGKGLEWVAGIGKDGVPKYGTAVDGRATISKDNGQSTMRLQLNNLRAEDTGTYFCAKAAGGCSYDWCGIYTGDIDTWGHGTEVIVSS
VL: ASTQPSSVSANPGEAVKITCSGGSGSYYGWYQQKSPGSAPVTVIYNNNQRPSDIPSRFSGSKSGSTATLTITGVQAEDEAVYFCGGYDSSTGHGGIFGAGTTLTVL
modifications: mouse constant regions
B5: #8-4: chicken-mouse chimeric anti-FSTL1 antibody clone; variable regions SEQ ID NO: 795 (light), 797 (heavy) (antibody, V domains shown)
VH: AVTLDESGGGLQTPGGGLSLVCKGSGFTLSSFNMFWVRQAPGKGLEWVAGVGKDGGTAYGAAVDGRATISRDSGQSTVRLQLNNLRAEDTGTYFCAKAAGGCSYSWCGAYVGDLDAWGHGTEVIVSS
VL: ASSQPSSVSANPGETVKITCSGGSGYYYGWYQQKSPGSAPVTVIYNNDNKPSDIPSRFSGSKSGSTGTLTITGVQVEDEAVYFCGGYDNSGTGIFGAGTTLTVL
modifications: mouse constant regions
B6: #5-2: chicken-mouse chimeric anti-FSTL1 antibody clone; variable regions SEQ ID NO: 763 (light), 765 (heavy) (antibody, V domains shown)
VH: AVTLDESGGGLQTPGGGLSLVCKGSGFTFSSFNMFWVRQAPGKGLEWVAGVGKDGGTGYGAAVDGRATISKDNGQSTLRLQLNNLRAEDTGTYYCAKAAGGCSYGWCGSYVGDIDAWGHGTEVIVSS
VL: ASTQPSSVSANPGEAVKITCSGGSGSYYGWYQQKSPGSAPVTVIYNNNQRPSDIPSRFSGSKSGSTATLTITGVQAEDEAVYFCGGYDSSTGHGGIFGAGTTLTVL
modifications: mouse constant regions

System: human pancreatic cancer cell line Panc1
Experiment: Inhibition of activation of tumor cells by FSTL1, Panc1 (Examples 5, 7, 9, 10, 11)
Format: cell-based
Description: It is known that tumor cells activated by stimulation with FSTL1 highly express molecule groups promoting bone metastasis and increase metastatic invasive capacity (Cancer Research 73: 6185, 2013). Thus, 2×10^7 cells/well of a human pancreatic cancer cell line Panc1 were suspended in 1 mL/well of D-MEM medium (GIBCO/Thermo Fisher Scientific Inc. Cat. No. C11885500BT) containing 10% fetal bovine serum, supplemented with 50 ng/mL (final concentration) of FSTL1 (R&D Systems, Inc.) and 10 μg/mL of the anti-FSTL1 antibody (#5-2, #5-8, #5-10, #5-43, #6-55, or #7-34) or its isotype mouse IgG (anti-DNP antibody) as a control antibody “Control”, and cultured under stimulation (6-well plate). 3 days thereafter, the number of cells was counted while the cells were stained with a PE-labeled anti-RANKL antibody (eBioscience Cat. No. 12-6619) and a PE-labeled anti-CCR2 antibody (R&D Systems, Inc. Cat. No. FAB151P) in order to examine the expression of markers indicating bone metastatic properties, and the contents of RANKL-positive cells and CCR2-positive cells were analyzed by flow cytometry using FACScan (Becton, Dickinson and Company) to calculate the numbers of cells per culture. […] Therefore, in Examples below, judgment was made with the number of cells as an index.
(§1) In the same way as in Example 5, a human pancreatic cancer cell line Panc1 was supplemented with 50 ng/mL (final concentration) of FSTL1 (R&D Systems, Inc.) and 10 μg/mL of the anti-FSTL1 antibody (the same clones as in Example 6) or a control antibody and cultured under stimulation. 3 days thereafter, the number of cells was counted while the cells were stained with a PE-labeled anti-RANKL antibody and a PE-labeled anti-CCR2 antibody, and the contents of RANKL-positive cells and CCR2-positive cells were analyzed by flow cytometry using FACScan (Becton, Dickinson and Company) to calculate the numbers of cells per culture (FIG. 99B).
as §1, with “20” for “50”, “FSTL1” for “FSTL1 (R&D Systems, Inc.)”, “(#5-2, #5-8, or #6-55)” for “(the same clones as in Example 6)”, “100B).” for “99B).”
as §1, with “FSTL1” for “FSTL1 (R&D Systems, Inc.)”, “(#5-2, #5-3, #6-55, #7-34, #8-1, #8-4, #8-7, or #8-8)” for “(the same clones as in Example 6)”, “culture.” for “culture (FIG. 99B).”
as §1, with “FSTL1” for “FSTL1 (R&D Systems, Inc.)”, “(#6-55)” for “(the same clones as in Example 6)”, “culture.” for “culture (FIG. 99B).”

[1] = Example 9: 20 ng/mL FSTL1, 10 μg/mL antibody, 3 days, FIG. 100B
[2] = Example 7: 50 ng/mL FSTL1, 10 μg/mL antibody, 3 days, FIG. 99B
[3] = Example 10: 50 ng/mL FSTL1, 10 μg/mL antibody, 3 days

Row | Molecule | inhibitory activity against the expansion of RANKL-positive cells and CCR2-positive cells [1] | inhibitory activity against the expansion of RANKL-positive cells and CCR2-positive cells [2] | inhibitory activity against the expansion of RANKL-positive cells and CCR2-positive cells [3] | other results
1 | B1 | exhibited inhibitory activity | – | – | inhibitory activity against the expansion of RANKL-positive cells and CCR2-positive cells (Example 11: 50 ng/mL FSTL1, at all tested doses (5, 10 and 20 μg/mL), no dose dependence, FIG. 100D): ~100%
2 | B2 | – | higher inhibitory activity | – | –
3 | B3 | – | – | high inhibitory activity | –
4 | B4 | exhibited inhibitory activity | higher inhibitory activity | – | –
5 | B5 | – | – | high inhibitory activity | –
6 | B6 | – | – | high inhibitory activity | –

Source: patent US20180021429A1, “ANTICANCER AGENTS OR ANTIMETASTATIC AGENTS USING FSTL1 AND COMBINATION DRUG THEREOF” (PHARMA FOODS INTERNATIONAL CO., LTD., priority 2015, published 2018)
